# T1: human FGFR1c-Fc (human, UniProt P11362 22-376)
# T1 construct: also called huFGFR1c-Fc; huFGFR1c/Fc
# T1 sequence: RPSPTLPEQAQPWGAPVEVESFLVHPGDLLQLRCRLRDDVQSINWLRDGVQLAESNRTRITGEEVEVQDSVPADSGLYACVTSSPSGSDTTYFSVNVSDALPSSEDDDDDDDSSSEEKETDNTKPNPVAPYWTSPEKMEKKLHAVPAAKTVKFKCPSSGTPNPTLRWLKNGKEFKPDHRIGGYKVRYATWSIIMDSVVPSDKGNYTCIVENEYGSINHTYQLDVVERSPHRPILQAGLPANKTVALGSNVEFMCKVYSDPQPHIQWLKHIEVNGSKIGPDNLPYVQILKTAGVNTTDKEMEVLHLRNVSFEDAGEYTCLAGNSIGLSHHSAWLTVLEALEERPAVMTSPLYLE
# T2: recombinant human β-Klotho (human, UniProt Q86Z14 53-996, limits assumed, biotinylated in the AlphaScreen assays (site not stated))
# T2 construct: also called rhβ-klotho; huβKlotho-His
# T2 sequence: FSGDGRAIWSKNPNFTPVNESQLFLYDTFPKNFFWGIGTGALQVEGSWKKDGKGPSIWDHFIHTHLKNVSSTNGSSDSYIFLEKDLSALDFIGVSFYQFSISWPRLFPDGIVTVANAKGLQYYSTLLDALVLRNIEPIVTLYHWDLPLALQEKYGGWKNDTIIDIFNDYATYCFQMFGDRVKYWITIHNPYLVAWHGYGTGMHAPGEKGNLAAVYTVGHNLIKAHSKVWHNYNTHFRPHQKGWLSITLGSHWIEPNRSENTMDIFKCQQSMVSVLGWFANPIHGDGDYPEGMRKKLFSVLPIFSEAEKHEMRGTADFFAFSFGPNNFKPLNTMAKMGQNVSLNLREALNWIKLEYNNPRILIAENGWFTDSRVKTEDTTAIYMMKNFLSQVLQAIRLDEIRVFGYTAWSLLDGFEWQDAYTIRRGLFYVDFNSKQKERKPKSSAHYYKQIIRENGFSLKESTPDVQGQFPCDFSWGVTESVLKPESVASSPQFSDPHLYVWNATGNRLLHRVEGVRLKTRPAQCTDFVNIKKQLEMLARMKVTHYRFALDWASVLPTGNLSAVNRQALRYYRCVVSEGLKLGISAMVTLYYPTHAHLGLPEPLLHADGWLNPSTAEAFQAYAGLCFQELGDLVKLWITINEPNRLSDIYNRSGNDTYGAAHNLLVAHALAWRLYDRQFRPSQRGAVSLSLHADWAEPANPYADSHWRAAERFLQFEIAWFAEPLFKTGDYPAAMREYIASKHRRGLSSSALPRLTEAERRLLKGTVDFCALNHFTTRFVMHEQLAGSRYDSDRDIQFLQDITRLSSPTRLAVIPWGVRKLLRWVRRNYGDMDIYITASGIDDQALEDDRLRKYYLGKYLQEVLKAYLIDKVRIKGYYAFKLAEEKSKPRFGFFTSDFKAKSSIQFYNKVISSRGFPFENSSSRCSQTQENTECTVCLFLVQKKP
# Target: T1, human FGFR1c-Fc
# Assay: phage panning
row,Binder,binding result
1,"CGAGQFTCRDTNICISRAWRCDGVDDCEDNSDEADCSQDPEFHKV (designed binder, also called R1cM08) [FGFR1c-binding monomer M08]",binds
2,FGFR1c-binding monomer M26 (designed binder) CGSSQFTCHNTNICLPRARVCDGVDDCEDNSDEAGCGDSHILPFSTPGPST,binds
3,CRLNEFPCGSGSCISLHWVCDSVPDCRDDSDETDCPERT (designed binder) [FGFR1c-binding monomer M33],binds
4,CGPNQFTCRSTNICLSQTWVCDGVDDCEDGSDETNCGRPGPGATSAPAA (designed binder) [FGFR1c-binding monomer M20],binds
5,FGFR1c-binding monomer M12 (designed binder) CGAGQFTCRSTNICLPLQWVCDGVDDCEDNSDEAGCGDSHILPFSTPGPST,binds
6,CGSSQFTCHNTNICLPRAWVCDGVDDCEDNSDEKNCSAPASEPPGSL (designed binder) [FGFR1c-binding monomer M29],binds
7,"CLSDQFTCRSTNICLPLQWVCDGDDDCEDNSDEEDCSAPASEPPGSL (designed binder, also called R1cM31) [FGFR1c-binding monomer M31]",binds

# Target: T1, human FGFR1c-Fc
# Assay: phage panning
# Remark: another data set of the same source
row,Binder,binding result
1,"CGSNLFTCRSTNICISPAWVCDGVDDCDDDSDETGCSQDPEFHKV (designed binder, also called M23mutM16) [FGFR1c-binding monomer M23mut16]",binds
2,CGPNLFTCRSTNICISRAWVCDGVDDCDDESDEQGCSQDPEFHKV (designed binder) [FGFR1c-binding monomer M23mut13],binds
3,"CGANLFTCRSTNICISPAWVCDGVDDCEDYSDEIGCSQDPEFHKV (designed binder, also called M23mutM11) [FGFR1c-binding monomer M23mut11]",binds
4,CGANLFTCRSTNICISPTWVCDGVDDCDDNSDEIGCSQDLEFHKV (designed binder) [FGFR1c-binding monomer M23mut12],binds
5,"CGSNLFTCRRTNICISKAWVCDGVDDCEDNSDETGCSQDPEFHKV (designed binder, also called M23mutM15) [FGFR1c-binding monomer M23mut15]",binds
6,"CGANLFTCQSTNICISDAWVCDGVDDCEDNSDETTCSQDPEFHKV (designed binder, also called M23mutM10) [FGFR1c-binding monomer M23mut10]",binds
7,CGTNMFTCQRTNICISDAWVCDGVDDCEDYSDETACSQDPEFHKV (designed binder) [FGFR1c-binding monomer M23mut18],binds
8,"CGSDMFTCRSTNICISKVWVCDGVDDCEDDSDERGCSQDPEFHKV (designed binder, also called M23mutM14) [FGFR1c-binding monomer M23mut14]",binds

# Target: T2, recombinant human β-Klotho
# Assay: phage panning
row,Binder,binding result
1,CVPNQFQCGSGRCLPHPLGCDGVDDCLDGSDEASCAPPT (designed binder) [β-Klotho-binding monomer M26],binds
2,CRSSEFPCHGYSTCISLSLLCDGVDDCADNSDEESCRAAGHT (designed binder) [β-Klotho-binding monomer M34],binds
3,CSAFEFHCLSGECIHSSWRCDWDLDCKDHPDEVMCALEA (designed binder) [β-Klotho-binding monomer M39],binds
4,CSAFEFHCLSGECIHSSWRCDMDWDCKDQPDQLWCALET (designed binder) [β-Klotho-binding monomer M37],binds
5,CSRAHFHCLSGECIHHHWRCDGGPDCKDKSDEENCPTKRPEEV (designed binder) [β-Klotho-binding monomer M41],binds
6,CVSDEFPCRDNNICVLLHLLCDGVDDCLDSSDETGCAKPT (designed binder) [β-Klotho-binding monomer M27],binds

# Target: T2, recombinant human β-Klotho
# Assay: phage panning
# Remark: another data set of the same source
row,Binder,binding result
1,CNPVYDPYCAAFFGDGGCGPHCGLAECVWDGMDCDHKEVRELT (designed binder) [β-Klotho-binding monomer LNR_M19],binds
2,CHPLIREYCEKFFGDGGCDSGCNNSRCDWDGDDCGLIQHGDVT (designed binder) [β-Klotho-binding monomer LNR_M14],binds
3,CLYQDCKEYYGDGNCSKGCNLAECLWDGGDCGTIFLADVT (designed binder) [β-Klotho-binding monomer LNR_M07],binds
4,CIAAKLCEALDGDGVCHKECDLEECDWDGGDCQRIFLTDPT (designed binder) [β-Klotho-binding monomer LNR_M01],binds
5,CMAYNLCQALVGDGSCNSECDTETCGWDGMDCATVEGAEAT (designed binder) [β-Klotho-binding monomer LNR_M11],binds
6,CMAYNLCTALVGDGECDQECDTPTCNWDGGDCAVKSAPDST (designed binder) [β-Klotho-binding monomer LNR_M05],binds
7,CNPLYDPHCRSYFGDGDCGPGCDLAACLWDGGDCPGVAAAELT (designed binder) [β-Klotho-binding monomer LNR_M13],binds
8,CNPLYDDHCAAFFGDGGCGPECSLAECLWDGGDCEEERDADVT (designed binder) [β-Klotho-binding monomer LNR_M15],binds
9,CNPIIQHYCETYDGDGLCESACNFYGCAWDGFDCQVISDKDST (designed binder) [β-Klotho-binding monomer LNR_M03],binds
10,CREYISCPNFYGDGRCQQDCNLAKCVWDGLDCADVWSEDLT (designed binder) [β-Klotho-binding monomer LNR_M04],binds
11,CIAAKLCERLDGDGSCQSECGNATCGWDGMDCDEKENDELT (designed binder) [β-Klotho-binding monomer LNR_M08],binds
12,CPAHYGTHCEERDGDGKCHQGCDFATCDWDGMDCGMDLVRELT (designed binder) [β-Klotho-binding monomer LNR_M17],binds
13,CNPKYDAHCASYFGDGECDPACSLAECVWDGDDCDPNFLTDVT (designed binder) [β-Klotho-binding monomer LNR_M16],binds
14,CMEAKSCQARDGDGDCGQGCNLAECIWDGMDCRPEWIRELT (designed binder) [β-Klotho-binding monomer LNR_M06],binds
15,CPPHIEDHCERRDGDGVCQKPCDFYGCLWDGVNCDMDLVQELT (designed binder) [β-Klotho-binding monomer LNR_M02],binds
16,CPPHIEDHCERRDGDGVCQKPCDFYGCLWDGVDCDMDLVEELT (designed binder) [β-Klotho-binding monomer LNR_M10],binds
17,CNPPIGQYCTQLFGDGDCGPDCDLAECVWDGDDCDPVAVPDVT (designed binder) [β-Klotho-binding monomer LNR_M18],binds
18,CNPPIGQYCTQLFGDGDCGPECNLAECVWDGDDCDPVAVPELT (designed binder) [β-Klotho-binding monomer LNR_M20],binds
19,CHPLIREYCTHYDGDGECDKGCDSAKCKWDGDDCDMDVLAEVT (designed binder) [β-Klotho-binding monomer LNR_M21],binds
20,CREYSMCTRFDGDGICHEQCGYPRCLWDGLDCANNFDHEVT (designed binder) [β-Klotho-binding monomer LNR_M12],binds
21,CMAYLLCKKYYGDGICRSECDTATCSWDGFDCPVNEIEDLT (designed binder) [β-Klotho-binding monomer LNR_M09],binds
